# Assay results as given in the RNAGym collection of RNA variant scans (doi:10.7554/elife.80360).
# B1: HDV Ribozyme (parent)
# chain: GGCCGGCAUGGUCCCAGCCUCCUCGCUGGCGCCGGCUGGGCAACAUUCCGAGGGGACCGUCCCCUCGGUAAUGGCGAAUGGGACCCA
# Variants of: B1
# Assay: self-cleavage, relative activity (ratio to wild type); higher = more cleavage; co-transcriptional
row,Variant,self-cleavage
1,GGCCGGCAUGGUCCCAGCCUCCUCGCUGGCGCCGGCUGGGCCACAUUCCGCGGGGACCGUCCCCUCGGUAAUGGCGAAUGGGACCCA [A42C A51C],0.0594
2,GGCCGGCAUGGUCCCAGCCUCCUCGCUGGCGCCGGCUGGGCCACAUUCCGAGGGGACCGUCCCCUUGGUAAUGGCGAAUGGGACCCA [A42C C66U],0.489
3,GGCCGGCAUGGUCCCAGCCUCCUCGCUGGCGCCGGCUGGGCCACAUUCCGAGGGGACCGUCCCCUGGGUAAUGGCGAAUGGGACCCA [A42C C66G],0.243
4,GGCCGGCAUGGUCCCAGCCUCCUCGCUGGCGCCGGCUGGGCCAUAUUCCGAGGGGACCGUCCCCUCGGUAAUGGCGAAUGGGACCCA [A42C C44U],0.161
5,GGCCGGCAUGGUCCCAGCCUCCUCGCUGGCGCCGGCUGGGCCAAAUUCCGAGGGGACCGUCCCCUCGGUAAUGGCGAAUGGGACCCA [A42C C44A],0.285
6,GGCCGGCAUGGUCCCAGCCUCCUCGCUGGCGCCGGCUGGGCCACAUUCCGAGGCGACCGUCCCCUCGGUAAUGGCGAAUGGGACCCA [A42C G54C],0.269
7,GGCCGGCAUGGUCCCAGCCUCCUCGCUGGCGCCGGCUGGGCCACAUUCCGAGGUGACCGUCCCCUCGGUAAUGGCGAAUGGGACCCA [A42C G54U],0.312
8,GGCCGGCAUGGUCCCAGCCUCCUCGCUGGCGCCGGCUGGGCCACAUUCCGAGGGGACCGUCCCCUCGGUUAUGGCGAAUGGGACCCA [A42C A70U],0.312
9,GGCCGGCAUGGUCCCAGCCUCCUCGCUGGCGCCGGCUGGGCCACAUUCCGAGGGGACCGUCCCCUCGGUCAUGGCGAAUGGGACCCA [A42C A70C],0.0875
10,GGCCGGCAUGGUCCCAGCCUCCUCGCUGGCGCCGGCUGGGCCACAUUCCGAGGGGAGCGUCCCCUCGGUAAUGGCGAAUGGGACCCA [A42C C57G],0.237
11,GGCCGGCAUGGUCCCAGCCUCCUCGCUGGCGCCGGCUGGGCCACAUUCCGAGGGGAUCGUCCCCUCGGUAAUGGCGAAUGGGACCCA [A42C C57U],0.203
12,GGCCGGCAUGGUCCCAGCCUCCUCGCUGGCGCCGGCUGGGCCACAUUCCGAGGGGACCGUCCACUCGGUAAUGGCGAAUGGGACCCA [A42C C63A],0.277
13,GGCCGGCAUGGUCCCAGCCUCCUCGCUGGCGCCGGCUGGGCCACAUUCCGAGGGGACCGUCCGCUCGGUAAUGGCGAAUGGGACCCA [A42C C63G],0.208
14,GGCCGGCAUGGUCCCAGCCUCCUCGCUGGCGCCGGCUGGGCCACAUUCCGAGGGGACCGUCCCAUCGGUAAUGGCGAAUGGGACCCA [A42C C64A],0.212
15,GGCCGGCAUGGUCCCAGCCUCCUCGCUGGCGCCGGCUGGGCCACAUUCCGAGGGGACCGUCCCUUCGGUAAUGGCGAAUGGGACCCA [A42C C64U],0.208
16,GGCCGGCAUGGUCCCAGCCUCCUCGCUGGCGCCGGCUGGGCCACAUUCCGAGGGGACCGUCCCCUCGGUAAUGGCGAAUGGGACCCC [A42C A87C],0.367

row,Variant,self-cleavage
1,GGCCGGCAUGGUCCCAGCCUCCUCGCUGGCGCCGGCUGGGCCACAUUCCGAGGGGACCGUCCCCUCGGUAAUGGCGAAUGGGACCCG [A42C A87G],0.219
2,GGCCGGCAUGGUCCCAGCCUCCUCGCUGGCGCCGGCUGGGCCACAUUCCGAAGGGACCGUCCCCUCGGUAAUGGCGAAUGGGACCCA [A42C G52A],0.399
3,GGCCGGCAUGGUCCCAGCCUCCUCGCUGGCGCCGGCUGGGCCACAUUCCGAGGGGACCGUCCCCUCGGUAAUGGCGAAUUGGACCCA [A42C G80U],0.219
4,GGCCGGCAUGGUCCCAGCCUCCUCGCUGGCGCCGGCUGGGCCACAUUCCGAGGGGACCGUCCCCUCGGUAAUGGCGAAUAGGACCCA [A42C G80A],0.234
5,GGCCGGCAUGGUCCCAGCCUCCUCGCUGGCGCCGGCUGGGCCACAUUCCGAGGGGACAGUCCCCUCGGUAAUGGCGAAUGGGACCCA [A42C C58A],0.364
6,GGCCGGCAUGGUCCCAGCCUCCUCGCUGGCGCCGGCUGGGCCACAUUCCGAGGGGACCGCCCCCUCGGUAAUGGCGAAUGGGACCCA [A42C U60C],0.35
7,GGCCGGCAUGGUCCCAGCCUCCUCGCUGGCGCCGGCUGGGCCACAUUCCGAGGGGACCGACCCCUCGGUAAUGGCGAAUGGGACCCA [A42C U60A],0.189
8,GGCCGGCAUGGUCCCAGCCUCCUCGCUGGCGCCGGCUGGGCCACAUUCCCAGGGGACCGUCCCCUCGGUAAUGGCGAAUGGGACCCA [A42C G50C],0.375
9,GGCCGGCAUGGUCCCAGCCUCCUCGCUGGCGCCGGCUGGGCCACAUUCCUAGGGGACCGUCCCCUCGGUAAUGGCGAAUGGGACCCA [A42C G50U],0.386
10,GGCCGGCAUGGUCCCAGCCUCCUCGCUGGCGCCGGCUGGGCCACAUUCCGAGGGGACCUUCCCCUCGGUAAUGGCGAAUGGGACCCA [A42C G59U],0.424
11,GGCCGGCAUGGUCCCAGCCUCCUCGCUGGCGCCGGCUGGGCCACAUUCCGAGGGGACCAUCCCCUCGGUAAUGGCGAAUGGGACCCA [A42C G59A],0.213
12,GGCCGGCAUGGUCCCAGCCUCCUCGCUGGCGCCGGCUGGGCCACAUACCGAGGGGACCGUCCCCUCGGUAAUGGCGAAUGGGACCCA [A42C U47A],0.0594
13,GGCCGGCAUGGUCCCAGCCUCCUCGCUGGCGCCGGCUGGGCCACAUUCCGAGGGGACCGUCCCCUCGGUAAUGGCGACUGGGACCCA [A42C A78C],0.169
14,GGCCGGCAUGGUCCCAGCCUCCUCGCUGGCGCCGGCUGGGCCACAUUCCGAGGGGACCGUCCCCUCGGUAAUGGCGAUUGGGACCCA [A42C A78U],0.0449
15,GGCCGGCAUGGUCCCAGCCUCCUCGCUGGCGCCGGCUGGGCCACGUUCCGAGGGGACCGUCCCCUCGGUAAUGGCGAAUGGGACCCA [A42C A45G],0.465
16,GGCCGGCAUGGUCCCAGCCUCCUCGCUGGCGCCGGCUGGGCCACAUUACGAGGGGACCGUCCCCUCGGUAAUGGCGAAUGGGACCCA [A42C C48A],0.361
